Experimental data reported in the supplement of paper PMC9112550, “Optimization of the antimicrobial peptide Bac7 by deep mutational scanning” (BMC Biology, 2022).

Test system: Escherichia coli TOP10
Assay: shrunken log2 fold change of peptide-encoding DNA abundance (4.5 h post-induction vs induction); higher = less antimicrobial activity (less host growth inhibition)
Conditions: time post-induction: 4.5 h; library: site-saturation at positions 5, 18, 19, 20
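Note: peptides expressed intracellularly from a pBAD plasmid library in pooled LB shake-flask culture, induced with 0.3% L-arabinose, DNA abundance read by NGS, three biological replicates, DESeq2 with apeglm shrinkage.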

Sequence | shrunken log2 fold change
RRIRARPPRLPRPRPRPFNDPRP | -0.147
RRIRDRPPRLPRPRPRPMKDPRP | -0.0395
RRIRWRPPRLPRPRPRPPCEPRP | 0.379
RRIRHRPPRLPRPRPRPHCDPRP | -0.0744
RRIRDRPPRLPRPRPRPETPPRP | 0.904
RRIRDRPPRLPRPRPRPRCQPRP | -0.128
RRIRVRPPRLPRPRPRPLELPRP | -0.103
RRIRGRPPRLPRPRPRPWHIPRP | -0.111
RRIRTRPPRLPRPRPRPHSRPRP | 0.0646
RRIRNRPPRLPRPRPRPGILPRP | -0.337
RRIRWRPPRLPRPRPRPPNAPRP | 0.675
RRIRTRPPRLPRPRPRPVFDPRP | -0.226
RRIRIRPPRLPRPRPRPVFCPRP | -0.321
RRIRPRPPRLPRPRPRPYHWPRP | -0.449
RRIRSRPPRLPRPRPRPWIDPRP | -0.615
RRIRQRPPRLPRPRPRPHMVPRP | -0.0317
RRIRARPPRLPRPRPRPKWSPRP | 0.354
RRIRYRPPRLPRPRPRPPYSPRP | -0.45
RRIRGRPPRLPRPRPRPPIVPRP | 0.0957
RRIRHRPPRLPRPRPRPLVNPRP | -0.117

Sequence | shrunken log2 fold change
RRIRYRPPRLPRPRPRPATCPRP | 0.0415
RRIRARPPRLPRPRPRPKSDPRP | 0.239
RRIRKRPPRLPRPRPRPICHPRP | 0.132
RRIRLRPPRLPRPRPRPYNQPRP | -0.693
RRIRFRPPRLPRPRPRPMEIPRP | -0.298
RRIRPRPPRLPRPRPRPHTEPRP | 0.0462
RRIRWRPPRLPRPRPRPGELPRP | 0.532
RRIRQRPPRLPRPRPRPWHEPRP | -0.00567
RRIRNRPPRLPRPRPRPMMFPRP | -0.0478
RRIRIRPPRLPRPRPRPFKQPRP | -0.246
RRIRVRPPRLPRPRPRPLKKPRP | 0.181
RRIRFRPPRLPRPRPRPGEIPRP | -0.183
RRIRDRPPRLPRPRPRPICGPRP | 0.0876
RRIRDRPPRLPRPRPRPAHRPRP | -0.0802
RRIRWRPPRLPRPRPRPVDIPRP | 0.101
RRIRLRPPRLPRPRPRPNNSPRP | -0.952
RRIRRRPPRLPRPRPRPRDQPRP | 0.341
RRIRMRPPRLPRPRPRPDCEPRP | 2.29
RRIRVRPPRLPRPRPRPDTKPRP | -0.26
RRIRDRPPRLPRPRPRPYVPPRP | -0.604

Sequence | shrunken log2 fold change
RRIRMRPPRLPRPRPRPAITPRP | 0.0226
RRIRHRPPRLPRPRPRPLHEPRP | 0.0601
RRIRNRPPRLPRPRPRPVWMPRP | -0.0917
RRIRVRPPRLPRPRPRPVWDPRP | 0.142
RRIRMRPPRLPRPRPRPISTPRP | 0.166
RRIRMRPPRLPRPRPRPTAFPRP | 0.206
RRIRFRPPRLPRPRPRPDRVPRP | 0.0813
RRIRMRPPRLPRPRPRPILHPRP | -0.378
RRIRLRPPRLPRPRPRPEHYPRP | -0.00385
RRIRIRPPRLPRPRPRPTTDPRP | -0.0551
RRIRLRPPRLPRPRPRPAVYPRP | 0.00171
RRIRFRPPRLPRPRPRPDAPPRP | 0.421
RRIRFRPPRLPRPRPRPWTMPRP | 0.0794
RRIRQRPPRLPRPRPRPPEEPRP | -0.00674
RRIRLRPPRLPRPRPRPMPKPRP | -0.105
RRIRDRPPRLPRPRPRPDQDPRP | 0.399
RRIRRRPPRLPRPRPRPYDIPRP | -0.249
RRIRERPPRLPRPRPRPHERPRP | -0.00965
RRIRPRPPRLPRPRPRPKYYPRP | -0.783
RRIRHRPPRLPRPRPRPPFGPRP | -0.0898
